The text below walks through data of US20240124586A1 (WUXI BIOLOGICS IRELAND, published 2024).

Experiment [1] addresses T1, cynomolgus CTLA-4 on engineered 293F cells (W316-293F.cynoPro1.F1.Pool) (cynomolgus).
T1 construct: whole, on cells; also called cynomolgus CTLA-4 engineered cells
Briefly: FACS binding to cynomolgus CTLA-4 engineered cells. The procedure: 4-fold titrated Abs with 1% BSA DPBS from 40 μg/ml to 0.00004 μg/ml were added to the cells. Plates were incubated at 4° C. for 1 hour. After wash, […] 1:150 diluted PE-labeled goat anti-human antibody (Jackson 109-115-098) was added to each well and the plates were incubated at 4° C. for 1 hour. The binding of the antibodies onto the cells was tested by flow cytometry and the mean fluorescence intensity (MFI) was analyzed by FlowJo.
For orientation: A flow cytometer gives signals particle by particle.

The target of experiment [2] is T2, ECD of human PD-1 (SPR analyte) (human, UniProt Q15116 25-170).
T2 construct: extracellular domain; the SPR method only says ECD of PD-1; also called W305-hPro1.ECD.His
T2 sequence (Q15116 25-170): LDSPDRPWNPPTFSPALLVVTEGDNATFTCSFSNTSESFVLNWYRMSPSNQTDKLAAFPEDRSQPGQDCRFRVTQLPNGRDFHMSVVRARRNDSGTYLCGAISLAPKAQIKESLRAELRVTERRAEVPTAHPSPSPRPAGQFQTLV
Kind of experiment: SPR (Biacore T200), antibody captured by anti-human Fc, PD-1 ECD as analyte. The procedure:
SPR technology was used to measure the on-rate constant (ka) and off-rate constant (kd) of the antibodies to ECD of CTLA-4 or PD-1. The affinity constant (KD) was consequently determined.
Biacore T200, Series S Sensor Chip CM5, Amine Coupling Kit, and 10×HBS-EP were purchased from GE Healthcare. Goat anti-human IgG Fc antibody was purchased from Jackson ImmunoResearch Lab (catalog number 109-005-098). In immobilization step, the activation buffer was prepared by mixing 400 mM EDC and 100 mM NHS immediately prior to injection. The CM5 sensor chip was activated for 420 s with the activation buffer. 30 μg/mL of goat anti-human IgG Fcγ antibody in 10 mM NaAc (pH 4.5) was then injected to Fc1-Fc4 channels for 200 s at a flow rate of 5 μL/min. The chip was deactivated by 1 M ethanolamine-HCl (GE). Then the antibodies were captured on the chip. Briefly, 4 μg/mL antibodies in running buffer (HBS-EP+) was injected individually to Fc3 channel for 30 s at a flow rate of […]. […] Regeneration buffer (10 mM Glycine pH 1.5) was injected at 10 μL min for 30 s following every dissociation phase.

The target of experiment [3] is T3, human PD-1 on engineered CHO-S cells (W305-CHO-S.hPro1.C6) (human, UniProt Q15116 25-288).
T3 construct: whole, on cells; also called human PD-1 engineered cells; PD-1+ cells
T3 sequence (Q15116 25-288, change not shown): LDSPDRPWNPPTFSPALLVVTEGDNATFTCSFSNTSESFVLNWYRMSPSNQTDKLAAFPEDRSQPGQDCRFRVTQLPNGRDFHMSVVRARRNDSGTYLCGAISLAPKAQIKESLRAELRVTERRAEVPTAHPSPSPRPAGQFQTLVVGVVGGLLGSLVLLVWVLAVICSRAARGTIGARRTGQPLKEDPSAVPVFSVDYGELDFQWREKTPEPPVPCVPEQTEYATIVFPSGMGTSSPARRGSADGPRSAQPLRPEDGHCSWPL
Kind of experiment: competitive FACS on human PD-1 CHO-S cells with 5 ug/ml PD-L1 ECD.mFc (competitor: PD-L1). The procedure:
In order to test whether the bispecific antibodies could block hPD-L1 binding to hPD-1 protein, a competitive FACS was conducted. […] Plates were incubated at 4° C. for 1 hour. After wash, the binding of W315-hPro1.ECD.mFc to cell expressive human PD-1 was detected by FITC-labeled goat anti-mouse antibody (abcam 98716 1:125). The competition binding of antibodies to the cells was tested by flow cytometry and the mean fluorescence intensity (MFI) was analyzed by FlowJo.

The target of experiment [4] is T4, cynomolgus CD19 on CHO-K1 cells (WBP701.CHO-K1.cpro1.FL.C9) (cynomolgus monkey, UniProt A0A2K5W8L9 20-557).
T4 construct: whole, on cells; also called cynomolgus-CD19 expressing cell; WBP701.CHOK1.cPro1.C9
T4 sequence: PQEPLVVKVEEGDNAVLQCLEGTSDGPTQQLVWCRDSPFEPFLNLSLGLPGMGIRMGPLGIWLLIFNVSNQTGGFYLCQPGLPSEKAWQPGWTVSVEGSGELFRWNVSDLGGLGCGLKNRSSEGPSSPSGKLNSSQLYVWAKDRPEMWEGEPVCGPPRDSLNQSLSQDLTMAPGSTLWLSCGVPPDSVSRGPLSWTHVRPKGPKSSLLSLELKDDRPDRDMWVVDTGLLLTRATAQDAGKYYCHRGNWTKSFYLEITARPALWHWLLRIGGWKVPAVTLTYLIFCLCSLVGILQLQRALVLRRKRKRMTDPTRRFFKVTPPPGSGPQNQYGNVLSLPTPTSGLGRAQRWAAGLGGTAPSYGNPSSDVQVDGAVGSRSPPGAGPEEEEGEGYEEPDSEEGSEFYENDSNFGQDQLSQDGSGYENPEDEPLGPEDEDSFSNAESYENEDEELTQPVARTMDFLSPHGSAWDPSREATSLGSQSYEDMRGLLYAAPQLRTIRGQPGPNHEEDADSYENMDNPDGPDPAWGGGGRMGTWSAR
Briefly: flow cytometry on cynomolgus CD19 CHO-K1 cells.
Method: Binding of the CD3×CD19 bispecific antibody to Cynomolgus CD19 target protein expressed on CHOK1 cells was determined by flow cytometry analysis. In brief, cynomolgus CD19 over-expressed stable cell line (WBP701.CHOK1.cPro1.C9, WuXi Biologics) were harvested with trypsin and diluted to 1×10⁶ cells/ml in 1% BSA/1×PBS. […] Antibodies serially diluted in 1% BSA/1×PBS were added at 100 ul/well to the pelleted cells and incubated at 4° C. for 1 hour. […] Cells were washed two times with 180 ul/well of 1% BSA/1×PBS by centrifugation at 1500 rpm for 5 minutes at 4° C. […] Cells were then washed two times as described above. After the final wash, cells were resuspended in 80 ul 1% BSA/1×PBS and fluorescence values were measured with a FACS Canto II cytometer (BD Biosciences). The amount of cell surface bound anti-CD19&CD3 bispecific antibody was assessed by measuring the mean fluorescence (MFI). The FACS raw data were analyzed by FlowJo software, wells containing no antibody or secondary antibody only were used to establish background fluorescence. Binding EC50 values were obtained by the four-parameter non-linear regression analysis using GraphPad Prism 5 software.

A further experiment has as its target T5, FcγRI (UniProt P12314 16-288, limits assumed).
T5 construct: His-tagged by the capture method
Kind of experiment: SPR (Biacore), receptor captured on anti-his chip, 1:1 model. The procedure:
Antibody binding affinity to FcγRs was detected using Biacore T200 (or Biacore 8K). Each receptor was captured on an anti-his antibody immobilized CM5 sensor chip (GE). Antibodies at different concentrations were injected over the sensor chip at a flow rate of 30 uL/min for an association phase of 60 s, followed by 60 s dissociation. The chip was then regenerated by 10 mM glycine (pH 1.5) after each binding cycle.
The sensorgrams of blank surface and buffer channel were subtracted from the test sensorgrams. The experimental data was fitted by 1:1 model using Langmiur analysis (for FcγRI) or steady state model (for other receptors). A molecular weight of 150 KDa was used to calculate the molar concentration of antibodies.
For orientation: In SPR one partner is held on a chip, and binding of the other changes the refractive index at the surface.

Experiment [5] has as its target T6, human CD3 on CD3+ Jurkat cells (human, UniProt P07766 23-207; P09693 23-182; P04234 22-171).
T6 construct: whole, on cells; also called CD3 positive Jurkat cells
Kind of experiment: affinity by flow cytometry on Jurkat cells (bound/free versus bound). As to the method: Binding affinity to CD3 and CD19 was determined by flow cytometry using Jurkat and Ramos cells, respectively. The cells were transferred in to 96-well U-bottom plates (BD) at a density of 5×10⁴ cells/well. Antibodies to be tested were 1:2-fold serially diluted in 1% 1×PBS/1% BSA and incubated with cells at 4° C. for 1 hr. Then, the plates were centrifuged at 1500 rpm for 4 mins and the supernatant discarded. […] The cells were washed once and re-suspended in 100 μL 1×PBS/1% BSA. Fluorescence intensity was measured by flow cytometry (BD Canto II) and analyzed by FlowJo. Fluorescence intensity was converted to bound molecules/cell based on the quantitative beads (Quantum™ MESF Kits, Bangs Laboratories). KD was calculated by Graphpad Prism5.
The bound IgG/free IgG versus bound IgG was plotted in FIGS. 46A and 46B.

T5 sequence (P12314 16-288 limits assumed): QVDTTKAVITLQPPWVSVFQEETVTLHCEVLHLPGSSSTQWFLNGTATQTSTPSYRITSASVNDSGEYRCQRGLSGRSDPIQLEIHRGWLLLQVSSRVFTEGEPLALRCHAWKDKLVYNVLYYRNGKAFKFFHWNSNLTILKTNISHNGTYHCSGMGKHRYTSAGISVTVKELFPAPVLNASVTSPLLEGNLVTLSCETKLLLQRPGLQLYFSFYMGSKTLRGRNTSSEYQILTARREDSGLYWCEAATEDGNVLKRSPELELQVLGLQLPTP
T6 sequence (P07766 23-207, chain 1 of 3): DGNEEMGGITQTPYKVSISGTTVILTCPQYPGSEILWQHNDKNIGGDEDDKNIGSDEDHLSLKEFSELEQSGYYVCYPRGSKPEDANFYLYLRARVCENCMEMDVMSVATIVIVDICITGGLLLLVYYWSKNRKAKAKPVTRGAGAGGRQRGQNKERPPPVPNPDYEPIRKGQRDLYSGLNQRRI
T6 sequence (P09693 23-182, chain 2 of 3): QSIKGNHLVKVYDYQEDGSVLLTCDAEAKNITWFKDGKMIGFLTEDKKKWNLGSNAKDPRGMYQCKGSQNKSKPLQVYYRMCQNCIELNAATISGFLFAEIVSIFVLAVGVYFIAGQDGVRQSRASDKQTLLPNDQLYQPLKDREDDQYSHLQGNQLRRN
T6 sequence (P04234 22-171, chain 3 of 3): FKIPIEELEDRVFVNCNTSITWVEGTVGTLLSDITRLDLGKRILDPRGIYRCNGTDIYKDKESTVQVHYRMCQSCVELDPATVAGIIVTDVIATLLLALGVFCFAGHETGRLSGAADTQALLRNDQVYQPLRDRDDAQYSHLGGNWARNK

B1: W3248-U6T5.G25-1.uIgG4.SP, bispecific anti-PD-1 x CTLA-4 (bispecific antibody)
heavy: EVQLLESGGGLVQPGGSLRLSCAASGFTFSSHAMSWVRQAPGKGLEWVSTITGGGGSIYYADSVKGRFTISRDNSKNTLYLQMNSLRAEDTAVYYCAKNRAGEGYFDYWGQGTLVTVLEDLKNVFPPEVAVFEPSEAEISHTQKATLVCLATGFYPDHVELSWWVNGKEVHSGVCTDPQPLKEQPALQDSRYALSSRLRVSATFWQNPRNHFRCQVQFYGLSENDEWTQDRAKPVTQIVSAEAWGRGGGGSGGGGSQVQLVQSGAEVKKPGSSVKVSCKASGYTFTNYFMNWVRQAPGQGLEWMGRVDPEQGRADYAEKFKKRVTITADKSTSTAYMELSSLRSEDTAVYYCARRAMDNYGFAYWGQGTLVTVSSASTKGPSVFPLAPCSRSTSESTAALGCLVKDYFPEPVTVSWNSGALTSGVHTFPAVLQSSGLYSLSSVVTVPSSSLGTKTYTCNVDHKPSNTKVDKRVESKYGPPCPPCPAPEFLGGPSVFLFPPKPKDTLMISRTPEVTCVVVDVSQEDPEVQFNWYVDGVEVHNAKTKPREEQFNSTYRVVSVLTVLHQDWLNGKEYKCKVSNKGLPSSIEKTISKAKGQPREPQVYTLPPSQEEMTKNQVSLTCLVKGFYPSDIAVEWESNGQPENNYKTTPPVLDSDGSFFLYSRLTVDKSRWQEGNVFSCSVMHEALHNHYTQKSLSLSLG
light 1: SYELTQPLSVSVALGQTARITCGGDNIGNKDVHWYQQKPGQAPVLVIYRDSNRPSGIPEGFSGSNSGNTATLTISRAQAGDEADYYCQVWDSIWVFGGGTKLTVLPDIQNPDPAVYQLRDSKSSDKSVCLFTDFDSQTQVSQSKDSDVYITDKCVLDMRSMDFKSNSAVAWSQKSDFACANAFQNSIIPEDTFFPSPESS
light 2: EIVLTQSPDFQSVTPKEKVTITCSANSALSYMYWYQQKPDQSPKLWVHGTSNLASGVPSRFSGSGSGTDFTLTINSLEAEDAATYYCHHWSNTQWTFGGGTKVEIKRTVAAPSVFIFPPSDEQLKSGTASVVCLLNNFYPREAKVQWKVDNALQSGNSQESVTEQDSKDSTYSLSSTLTLSKADYEKHKVYACEVTHQGLSSPVTKSFNRGEC
notes: IgG4 (S228P); also called WBP3248-U6T5.G25-1-uIgG4.SP; U6T5.G25.IgG4
By EC50 is commonly meant the concentration at which the effect is half-maximal. A high value points to a need for much substance. As a reminder, the Kd is the concentration at which binding is half-saturated. Low values mean higher affinity, high ones lower affinity. The term IC50 denotes the concentration that inhibits the measured activity by half. Lower therefore signals greater potency in that assay. Consider B1, for which, in experiment [1], the EC50 is 1.45 nM and the “Top(MFI)” value was 11200 MFI. This molecule showed an equilibrium dissociation constant (Kd) in experiment [2] of 1.32 nM. In experiment [3], the IC50 turned out to be 1.92 nM.

B2: W3248-U6T1.G25R-1.uIgG4.SP, bispecific anti-PD-1 x CTLA-4 (bispecific antibody)
heavy: EVQLLESGGGLVQPGGSLRLSCAASGFTFSSHAMSWVRQAPGKGLEWVSTITGGGGSIYYADSVKGRFTISRDNSKNTLYLQMNSLRAEDTAVYYCAKNRAGEGYFDYWGQGTLVTVSSASTKGPSVFPLAPCSRSTSESTAALGCLVKDYFPEPVTVSWNSGALTSGVHTFPAVLQSSGLYSLSSVVTVPSSSLGTKTYTCNVDHKPSNTKVDKRVGGGGSGGGGSQVQLVESGGGVVQPGRSLRLSCAASGFTFSSYTMHWVRQAPGKGLEWVTFISYDGNNKYYADSVKGRFTISRDNSKNTLYLQMNSLRAEDTAIYYCARTGWLGPFDYWGQGTLVTVLEDLKNVFPPEVAVFEPSEAEISHTQKATLVCLATGFYPDHVELSWWVNGKEVHSGVCTDPQPLKEQPALQDSRYALSSRLRVSATFWQNPRNHFRCQVQFYGLSENDEWTQDRAKPVTQIVSAEAWGRYGPPCPPCPAPEFLGGPSVFLFPPKPKDTLMISRTPEVTCVVVDVSQEDPEVQFNWYVDGVEVHNAKTKPREEQFNSTYRVVSVLTVLHQDWLNGKEYKCKVSNKGLPSSIEKTISKAKGQPREPQVYTLPPSQEEMTKNQVSLTCLVKGFYPSDIAVEWESNGQPENNYKTTPPVLDSDGSFFLYSRLTVDKSRWQEGNVFSCSVMHEALHNHYTQKSLSLSLG
light 1: SYELTQPLSVSVALGQTARITCGGDNIGNKDVHWYQQKPGQAPVLVIYRDSNRPSGIPEGFSGSNSGNTATLTISRAQAGDEADYYCQVWDSIWVFGGGTKLTVLGQPKAAPSVTLFPPSSEELQANKATLVCLISDFYPGAVTVAWKADSSPVKAGVETTTPSKQSNNKYAASSYLSLTPEQWKSHKSYSCQVTHEGSTVEKTVAPTECS
light 2: not shown
notes: IgG4 (S228P); also called U6T1.G25R.IgG4
On to B2, for which, in experiment [1], a half-maximal response (EC50) required 5.87 nM and the “Top(MFI)” value was 6650 MFI. In addition, the affinity in experiment [2], expressed as Kd, was 1.24 nM. For the same molecule, the IC50 in experiment [3] is 1.67 nM.

B3: W3438-T3U4.E17-1.uIgG4.SP, bispecific anti-CD3 x CD19 (bispecific antibody)
heavy 1: QVQLVQSGAEVKKPGSSVKVSCKASGFAFTDYYIHWVRQAPGQGLEWMGWISPGNVNTKYNENFKGRVTITADKSTSTAYMELSSLRSEDTAVYYCARDGYSLYYFDYWGQGTLVTVLEDLKNVFPPEVAVFEPSEAEISHTQKATLVCLATGFYPDHVELSWWVNGKEVHSGVCTDPQPLKEQPALQDSRYALSSRLRVSATFWQNPRNHFRCQVQFYGLSENDEWTQDRAKPVTQIVSAEAWGRYGPPCPPCPAPEFLGGPSVFLFPPKPKDTLMISRTPEVTCVVVDVSQEDPEVQFNWYVDGVEVHNAKTKPREEQFNSTYRVVSVLTVLHQDWLNGKEYKCKVSNKGLPSSIEKTISKAKGQPREPQVYTLPPCQEEMTKNQVSLWCLVKGFYPSDIAVEWESNGQPENNYKTTPPVLDSDGSFFLYSRLTVDKSRWQEGNVFSCSVMHEALHNHYTQKSLSLSLGK
light 1: DIVMTQSPDSLAVSLGERATINCKSSQSLLNSRTRKNYLAWYQQKPGQPPKLLIYWASTRQSGVPDRFSGSGSGTDFTLTISSLQAEDVAVYYCTQSHTLRTFGGGTKVEIKPDIQNPDPAVYQLRDSKSSDKSVCLFTDFDSQTQVSQSKDSDVYITDKCVLDMRSMDFKSNSAVAWSQKSDFACANAFQNSIIPEDTFFPSPESS
heavy 2: QMQLVQSGPEVKKPGTSVKVSCKASGYAFTSYNMYWVRQARGQRLEWIGYIDPYNGDTTYNQKFKGRVTITRDMSTSTAYMELSSLRSEDTAVYYCLTTAYAMDYWGQGTLVTVSSASTKGPSVFPLAPCSRSTSESTAALGCLVKDYFPEPVTVSWNSGALTSGVHTFPAVLQSSGLYSLSSVVTVPSSSLGTKTYTCNVDHKPSNTKVDKRVESKYGPPCPPCPAPEFLGGPSVFLFPPKPKDTLMISRTPEVTCVVVDVSQEDPEVQFNWYVDGVEVHNAKTKPREEQFNSTYRVVSVLTVLHQDWLNGKEYKCKVSNKGLPSSIEKTISKAKGQPREPQVCTLPPSQEEMTKNQVSLSCAVKGFYPSDIAVEWESNGQPENNYKTTPPVLDSDGSFFLVSRLTVDKSRWQEGNVFSCSVMHEALHNHYTQKSLSLSLGK
light 2: DIQLTQSPSFLSASVGDRVTITCSASSTVNYMHWYQQKPGKAPKLLIYSTSNLASGVPSRFSGSGSGTEFTLTISSLQPEDFATYYCHQWSSYPYTFGQGTKLEIKRTVAAPSVFIFPPSDEQLKSGTASVVCLLNNFYPREAKVQWKVDNALQSGNSQESVTEQDSKDSTYSLSSTLTLSKADYEKHKVYACEVTHQGLSSPVTKSFNRGEC
notes: also called E17-Design_2-QQQQ (IgG4); E17-IgG4; copies: 1 + 1 + 1 + 1
With B3, in experiment [4], the EC50 turned out to be 26 nM. In addition, the Kd with FcγRI was 9.79 nM; in experiment [5] it was 9 nM.
